Data on two molecules can be found in paper PMC8546699, “Ehrlichia chaffeensis TRP120 Is a Wnt Ligand Mimetic That Interacts with Wnt Receptors and Contains a Novel Repetitive Short Linear Motif That Activates Wnt Signaling” (mSphere, 2021).

Test [1] addresses rTRP120-tandem repeat domain truncate construct (rTRP120-TRD) (Ehrlichia chaffeensis) (UniProt Q2GI62). The experiment in a line: SPR; His-tagged rTRP120-FL or rTRP120-TRD (0.1 µM) captured on Ni-NTA sensor chip; rFzd-ECD 0 to 1,600 nM flowed over; Biacore T100; 100 mM NaPO4 pH 7.4, 400 mM NaCl, 40 µM EDTA, 0.005% Tween 20; 1:1 fit. In general terms: SPR reads the build-up and loss of mass on a sensor chip optically.

The target of test [2] is T1, recombinant, full-length TRP120 (rTRP120-FL) (Ehrlichia chaffeensis, UniProt Q2GI62 1-548).
T1 construct: Ehrlichia chaffeensis tandem repeat protein TRP120, full-length gene cloned upstream of a 6xHis tag; Thioredoxin fusion from the vector pBAD/Thio-TOPO; also called rTRP12-FL; source: E. coli TOP10, pBAD/Thio-TOPO, purified (His-tag purification resin); not shown: His6, C-terminal, kept
T1 sequence: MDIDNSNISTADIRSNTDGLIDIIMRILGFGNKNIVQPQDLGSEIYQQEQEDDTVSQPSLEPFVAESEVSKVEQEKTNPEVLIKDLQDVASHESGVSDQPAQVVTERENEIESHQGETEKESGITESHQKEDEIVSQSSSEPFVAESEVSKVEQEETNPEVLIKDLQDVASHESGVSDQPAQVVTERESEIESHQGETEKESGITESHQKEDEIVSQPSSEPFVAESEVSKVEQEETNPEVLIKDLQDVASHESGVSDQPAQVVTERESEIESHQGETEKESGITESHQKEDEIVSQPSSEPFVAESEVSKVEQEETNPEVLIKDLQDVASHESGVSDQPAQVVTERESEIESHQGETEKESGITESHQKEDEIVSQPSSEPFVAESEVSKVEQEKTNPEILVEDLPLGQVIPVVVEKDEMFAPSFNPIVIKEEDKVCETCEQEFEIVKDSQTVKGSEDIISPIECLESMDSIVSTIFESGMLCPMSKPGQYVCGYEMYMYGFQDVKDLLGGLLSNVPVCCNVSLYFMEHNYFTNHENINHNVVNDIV
Described as above. As to conditions: both partners purified.

As usually defined, the Kd is a measure of binding affinity in units of concentration.

On to “recombinant Fzd5 extracellular domain (rFzd5-ECD) (from UniProt Q13467 27-238) (domain or fragment)”, for which the Kd in test [1] amounted to 1.35 µM.

B1: recombinant Fzd5 extracellular domain (rFzd5-ECD) (domain or fragment, UniProt Q13467 27-238, looked up)
chain: ASKAPVCQEITVPMCRGIGYNLTHMPNQFNHDTQDEAGLEVHQFWPLVEIQCSPDLRFFLCSMYTPICLPDYHKPLPPCRSVCERAKAGCSPLMRQYGFAWPERMSCDRLPVLGRDAEVLCMDYNRSEATTAPPRPFPAKPTLPGPPGAPASGGECPAGGPFVCKCREPFVPILKESHPLYNKVRTGQVPNCAVPCYQPSFSADERTFATFW
notes: Frizzled-5, recombinant extracellular domain (methods: 'cysteine-rich domain-truncated protein'); commercial Frizzled ECD proteins are often Fc chimeras and may be mouse (surmise); also called Fzd5-CRD; source: bought: R&D Systems
For B1, the Kd in test [2] was 46.3 µM.
